# Source: patent publication US9610323B2, “Model systems and treatment regimes for treatment of neurological disease” (NoNO Inc., priority 2009, dated 2017)
# Like-named read-outs stand apart in the source and are kept apart here. Square brackets hold non-standard residues; d marks the D form. Ends that are not written are not given here.
# How the values were obtained:
# cerebral ischemia = details: reported in WO 2008/014917; cited from earlier work
# [1] = biological target: binding of NMDAR 2B to PSD95 (Homo sapiens, UniProt P78352); details: reported by Bach; cited from earlier work
# embolic stroke = assay: Primate model of ischemic stroke (twenty 100-micron polystyrene spheres into an intracerebral vessel; MRI brain analysis); assay type: in vivo, macaques; details: 2.6 mg/kg one hour after spheres
# Description: The following example was performed on ten macaques divided into five test subjects and five controls. Each animal was put through the protocol twice with test animals in the first round serving as controls in the second round and vice versa.
# Twenty 100-micron polystyrene spheres were delivered into an intracerebral vessel of each animal to induce embolic stroke. One hour after introducing the sphere, the animals were treated with Tat-NR2B9c (2.6 mg/kg) or vehicle control. The animals were then subject to MRI brain analysis and neurological examination at 4 hr, 24 hr and 14 days after introduction of the spheres.
# After 14-28 days, the procedure was repeated with test animals serving as controls and vice versa.
# [2] = system: permanent pial vessel occlusion (P3VO) stroke; assay: Rat model of stroke, permanent pial vessel occlusion of 3 terminal branches of the Middle Cerebral Artery (P3VO); assay type: in vivo, Sprague Dawley rats; details: 7.6 mg/kg i.v. after vessel occlusion, 5 min infusion
# Description: Different infusion times were also compared for efficacy in a rat model of stroke in which adult Sprague Dawley rats (10-12 weeks old) (males˜300 g, females˜250 g) were fasted for 12-18 hours before being subjected to permanent pial vessel occlusion of 3 terminal branches of the Middle Cerebral Artery over the Whisker Barrel Cortex (P3VO). The protocol for analysis of this rat model has been described in WO/2008/008348. Tat-NR2B9c was administered at 7.6 mg/kg i.v. after vessel occlusion in comparison with vehicle. Two periods of infusion were compared, 5 min and 1 hour.
# [3] = Description: For use such a composition is thawed and diluted into a larger volume of normal saline for infusion into a blood vessel. Another composition can be made by lyophilizing the chimeric agent Tat-NR2B9c at a concentration of 1-50 mg/ml in normal saline in the presence or absence of excipients. Such excipients can include those to increase stability or inhibit bacterial, viral or other pathogen growth that could degrade the drug. […] The lyophilized composition can be reconstituted in normal saline.
# [4] = 50 mg/kg
# [5] = for subjects with histamine levels greater than 10 nmol/L: 3.75 mg/kg dose group; for maximum histamine level / average histamine level: 3.75 mg/kg; for average histamine level: subjects with levels greater than 10 nmol/L
# [6] = high dose groups, rats
# [7] = high dose groups, dogs
# [8] = high dose groups, primates
# [9] = cortex compared with whole brain
# Chain of binding of NMDAR 2B to PSD95 (P78352 61-249 limits assumed): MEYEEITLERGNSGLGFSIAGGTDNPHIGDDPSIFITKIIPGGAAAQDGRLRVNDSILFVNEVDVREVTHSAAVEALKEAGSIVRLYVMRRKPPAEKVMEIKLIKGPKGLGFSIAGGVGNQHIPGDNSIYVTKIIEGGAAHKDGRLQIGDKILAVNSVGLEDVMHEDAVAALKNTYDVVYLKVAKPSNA
substance,measurement,setting,value
"vdseisslk-rrrqrrkkrgyin ([dV][dD][dS][dE][dI][dS][dS][dL][dK][dR][dR][dR][dQ][dR][dR][dK][dK][dR]G[dY][dI][dN]; also: retro-inverso) [retro-inverso analog of Tat-NR2B9c, retro-inverso analog of Tat-NR2B9c described in WO 2008/014917]",inhibiting cerebral ischemia,cerebral ischemia,effective
"IESDV (synthetic pentamer peptide from the C-terminus of NMDAR 2B) [pentamer peptide from the C-terminus of NMDAR 2B, reported by Bach]",inhibiting binding of NMDAR 2B to PSD95,[1],effective
YGRKKRRQRRRKLSSIESDV [Tat-NR2B9c],reduction of number of infarctions in the cortex,embolic stroke; [9],even greater
same,reduction of volumes of infarctions in the cortex,embolic stroke; [9],even greater
same,number of MRI-visible infarctions in the whole brain,embolic stroke; vs vehicle control,significantly reduced
same,volume of MRI-visible infarctions in the whole brain,embolic stroke; vs vehicle control,significantly reduced
same,infarction size 24 hr post treatment relative to saline placebo,[2],significantly reduced
same,stability of lyophilized composition,"[3]; lyophilized from 1-50 mg/ml in normal saline, −20° C. or room temperature",stable
same,stability (degradation or aggregation of the peptide) when stored frozen,"[3]; normal saline, 10-30 mg/ml, stored frozen, two or more years",stable
same,decrease in blood pressure,[4]; infusion over 3 min,about 50%
same,period of recovery of blood pressure,[4]; infusion over 3 min,90 min
same,recovery of blood pressure,[4]; infusion over an hour (60 min),recovered over a period of hour
same,reduction in blood pressure,[4]; infusion over an hour (60 min),only a slight reduction
same,subjects with an elevated histamine level,"[5]; 0.375 mg/kg dose group, 1 timepoint, 2.00 hours post dose",1 subject
same,subjects with histamine levels greater than 10 nmol/L,[5]; 10 minutes after start of administration,7 of the 8
same,subjects with histamine levels greater than 10 nmol/L,"[5]; 10 minutes after start of administration, listed as NA 1",Seven of 8
same,subjects with histamine levels greater than 10 nmol/L,[5]; 15 minutes after start of administration,3 subjects
same,maximum histamine level,[5]; 10 minutes after start,39.8 nmol/L
same,average histamine level,[5]; 10 minutes after start,24.3 nmol/L
same,maximum histamine level,[5]; 15 minutes after start,20.3 nmol/L
same,average histamine level,[5]; 15 minutes after start,15.3 nmol/L
same,"AE dry mouth, incidence",[5]; 9/46 subjects receiving drug,19.6%
same,"AE flushing, incidence",[5]; 10/46 subjects receiving drug,21.7%
same,"AE pruritis, incidence",[5]; 12/46 subjects receiving drug,26.1%
same,"AE feeling hot, incidence",[5]; 13/46 subjects receiving drug,28.3%
same,active treatment subjects who experienced at least 1 AE,"[5]; 34 of 46 active treatment subjects, all doses",73.9%
same,time for abnormal histamine results to return to the normal range,[5]; after drug administration,≤ 24.00 h
same,Serious Adverse Events (SAEs),[5]; all dose groups,No Serious Adverse Events (SAEs) were reported
same,"AEs at doses ≧2.60 mg/kg (decreased blood pressure, paraesthesia, hypoaesthesia, erythema, rash, pruritus, dry mouth, nausea, feeling hot, flushing)",[5]; doses ≧2.60 mg/kg,several AEs were frequently reported
same,abnormal levels of histamine,[5]; treatment groups other than 3.75 mg/kg,no treatment group had significant abnormal levels of histamine
same,histamine levels,[6],elevated histamine levels were observed
same,histamine levels,[7],elevated histamine levels were observed
same,histamine levels,[8],elevated histamine levels were observed
